Measurements published in the domain aggregation screens of Martell et al. (2025).

Assay: soluble fraction after stress (log2 fold change); higher = more stays soluble; pooled small domains, quantitative proteomics
Settings: stress: 75 degC
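Further: 20 min heating vs room temperature control held 20 min.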

Point of comparison: “HMQKFLEATGENRDAAVENALEQLGLERDDVSVEVLEIGKKGFLGIGATPARVRVTYEAPDI”, “soluble fraction (log2)” value 0.197. Against it:
- HMQEEFVAPDVKDGAIVLHKAFGEGTVTKIDKAQKHIRVTFGVGEKTFIFPDAFKQGFLRMKG — within 0.2 log units, 0.303
- HMQEERLTFDTLLGISGIGPRLALAVLSRFTPGSLAAAVDAGDTKAFSAVPGVGNRTASRIILELKGKL — lower, -0.748
- HMQEGPGLVPDFRGQTMREVLRGGQSLGVRVAVDGTGLAVAQTPEPGSPLNKVSQVTVSFRPP — within 0.2 log units, 0.0233
- HMQEINLIGVTGNDLERSALVKLLDGEIIKLSVGDNLNGGRVVDISAVTLTYLKSGQSITLKLPK — lower, -2.9
- HMQELGVISEGKYNIELNMVSWNDREPKYDIRSWAPDHSRMGKGISLTEEEMERLVELWNTRNE — lower, -0.441
- HMQELKWERNYKLVQDYIKQYGVLPSKNTKYANVSIGRWLTNQHELVKEDNLAPERFEKIKELDT — lower, -0.297
- HMQENDLGAVEKIVDDVLHDPKNAQAVADFKAGSEKVLGFLTGQVMKASRGKANPSVVQEVLRQKLKN — lower, -0.314
- HMQENVIIYPNPTKSVIYLSEKVEFILYNILGEIIFIGDNNKIDLNSFDNGVYIFESGNVRTQIIK — within 0.2 log units, 0.0395
- HMQEQIVQGIVKYFDAEKQFGFIAGDDGVDRFFNAKSIQGNAVKTGDRVRFLAISHIRGPRALKISA — lower, -1.24
- HMQEQSSYVGQFGTAATTLRPSGTVELEDGTRIDVVTVGEFIEKGEPVQVVRKDGTWLVVEKRRSK — higher, 0.976
- HMQERKYTVSFNTNGGSTINDQKITSGNVIISPGAPKRSGYTFVGWYYHGQPFDLNTKINQDYVLVAKWIK — lower, -2.49
- HMQETILFGQQKAINNLSSDTGLSENDLDSYLKKRYKKPLYQLTQSEGADIINGFQDGSLSKNSILDYIKP — within 0.2 log units, 0.173
- HMQEVKVRLKPDYLGEVLIKVISDKGELKAELFVSNSQVRSLLRAYAVEFQNQIRDQGYNFSEINVYR — lower, -0.738
- HMQFAEIPNFSEMALQILRLQADGLSITKIAEALHMNPRTVKYHAQENYRKLQASNKSEALLAARNLNL — lower, -1.85
- HMQFEIGDTVRVHVNIREGERERVQMFEGTVIAKRGSGVSETFTVRRVSYGVGVERVFPVNSPNV — higher, 0.437
- HMQFETVQDAFNHYRNASLEEIESRAAEIKGIIESDPEADVRALNIEIEGLHQAKQNILEKQKTK — lower, -0.179
- HMQFLGKVTVTHARQANLRAQPSMDAAIVGKVNPGEVYNVVSIPKTSWYEIQLQNGKTVFIAAGMVSFRM — lower, -0.441
- HMQFSAVVLDMETRRQVAGVAVYINPKGVVKTDMRGRFVIDGAFNSVTLVRQGYESLTLERSEMTDSIWM — lower, -1.64
- HMQGEASDAQLKAIFAIARKLGITDDFEVHRKASRLAGVPEPEVLPSLKSLTYAQASAVIKALQEELE — within 0.2 log units, 0.248
- HMQGENDVTIDPKKLTIGDLAKEISKIEDSEELNNILVAEKEGKGRKGAINAITERIENVSGGTG — within 0.2 log units, 0.0455
- HMQGLIGEQKAIQIALSRVPGAKPEHVRELKLDYDDGMQLYEGEIFYNFREYEFEINAVTGEVVGWEI — lower, -1.01
- HMQHRSRALHLQEELVRRYYDQAIAPFMIFWEMKANVTLDQLKELRAVVSPSLNEHPYTKQLDEYIRLAE — lower, -0.595
- HMQIEQVDYGTFMTMIDDKKIDKVEIKDNQILFIGKDDNKKYKTGIVQDPQLAERLHASGAVFSQDI — within 0.2 log units, 0.261
- HMQIIGEQNQKDFIALFGAILRMRNLLLSFDEFKGNELISERDLQDYLGRYQDLRDEWRNKRRER — lower, -0.0814
- HMQINDSSVVQKAVNDVIDQNSKAVSDYWDGKEGAAKFLMGQVMKLTRGQANPDLANQLILTRLQQERV — higher, 0.437
- HMQISDEAALLAIVDRVIADNQGPLANYLGGKQSLLGWFVGQVMRATRGQAIPAVVNRLVGERLAAQREE — lower, -0.877
- HMQISDESQLREVVSKILEENEQSVIDYKNGKTRAMGFIIGQVMKATRGKANPQLVNEIVKEMLDE — within 0.2 log units, 0.0956
- HMQISDTASIQEIAKEIIKSNPKAVEDYKKGKENALQFLVGQLMTKTKGTVHPGAARTILGDILK — within 0.2 log units, -0.0025
- HMQISDTSELEAVVQDILKANMDVVAKIKAGKTNSANFLMGQVMKLTKGRAKPDTVLQLILDAVKQ — lower, -0.943
- HMQISLAAARVNAGLTQEEVAKAMKVGKQTIVSWEKGNSEPKMSQSRELSELYKIPLDYIFYP — lower, -0.5
- HMQITDSGAIETIIDKIIADNPGQVTQYLSGKDKVFGFFVGQTMKASQGKANPAEVNKILQEKLK — lower, -0.0499
- HMQITQSSEPIDVSALRLGMFIHLEGGWLSHPFPRSSFKITSEDQLVTLRSLGISVLRWSPELSDPE — lower, -3.52
- HMQIVPVDYSTFMQSIDDKTVDHVEIQSNQILYTVKDDHKKYKTGIMNDPTLAQRLMESGATFTQD — within 0.2 log units, 0.12
- HMQKAEQIGSLLREKRKSMGLTQDELAQQVEVRRQTLADLELGKNVGSHLLIKVMEHLGVGFDLL — lower, -0.738
- HMQKEIKVPDVANMALSEAVEKLQNEGFKVADEQKEVSSDEIEEGKVVKTSPVAGTKKTKGSEITIYISSG — within 0.2 log units, 0.26
- HMQKKEVTVPEVRSKSLKEAAQILSEQNLKYETEPVNVENPDMVVIDQFPKPGGKISEQSVIILYLR — higher, 0.697
- HMQKLNIEEQIVYDIIFKNKELSANEIQIKSGIKTSILNALLINLEIKQYIKLKFGNFYEIK — within 0.2 log units, 0.181
